Reference: patent US7772181B2, “Personal care compositions comprising modified variant Bowman Birk Protease Inhibitors” (Danisco US Inc., priority 2008, dated 2010)
Substitutions are numbered along the chain they refer to. Numbers in names are those of the source.

Tests used:
[1] = target: T1, bovine pancreatic trypsin (Bos taurus, UniProt P00760); experiment: Trypsin inhibitory assay (BBI activity); assay type: biochemical
T1 construct: purchased Worthington (Worthington Biochemical Corp.)
T1 sequence (P00760 24-246): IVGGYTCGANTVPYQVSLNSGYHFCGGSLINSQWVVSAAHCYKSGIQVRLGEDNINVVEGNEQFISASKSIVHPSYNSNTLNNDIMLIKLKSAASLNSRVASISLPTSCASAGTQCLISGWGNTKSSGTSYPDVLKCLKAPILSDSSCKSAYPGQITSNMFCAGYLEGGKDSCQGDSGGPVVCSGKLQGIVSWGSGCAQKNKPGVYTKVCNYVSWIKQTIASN
Experimental: (§1) Trypsin inhibitory assays were performed in Assay Buffer to determine the BBI activity. Specifically, a standard curve was generated by making eleven 1:1 serial dilutions (100 μL BBI+100 μL Assay Buffer) of a 2 μg/mL standard BBI solution. The BBI standard was purified from a 1 mg/ml Trypsin-Chymotrypsin Inhibitor (Sigma Cat. #T-9777) solution in 20 mM MES pH 6.0 using a hydrophobic interaction column (POROS HP2, Phenyl column, Applied Biosystems). The column was equilibrated with 20 mM MES pH 6.0, loaded with 5 mg of the inhibitor, washed with the equilibration buffer, and then the BBI was eluted with water. Unknown BBI samples to be tested in the inhibitory assay were diluted as necessary, so that two or more data points would fall within the standard curve (usually 1:10, 1:100, 1:200, 1:1000, 1:2000 sample dilutions were tested and then the dilutions fine tuned if necessary). […] After the incubation, 100 μL of the 0.5 mg/ml trypsin substrate (diluted in Assay Buffer from a 100 mg/ml solution in DMSO), Suc-AAPR-pNA (succinyl-Ala-Ala-Pro-Arg-para-nitroanilide, Bachem), was added, mixed and the OD (A405) was monitored for 15 min, with 1 time point recorded every 12 sec using a Spectra Max 250 (Molecular Devices). […] The BBI concentration of the unknown samples was calculated from the standard curve. Alternatively, the BBI activity was measured using the same protocol but by determining bovine pancreatic chymotrypsin (Worthington) inhibition (chymotrypsin was used at the same concentration as trypsin and chymotrypsin activity was measured by adding 100 μL of a 0.4 mg/ml chymotrypsin substrate, succinyl-Ala-Ala-Pro-Phe-para-nitroanilide, Bachem).
The relative concentration of active control and modified BBIt-AV's was determined by a trypsin inhibitory assay using purified sBBI as a standard as described above. For some samples, the active BBI concentration was measured by residual trypsin activity according to the method described by Flecker (Flecker, P. FEBS Lett. 252:153-157 [1989]; Vogtentanz et al. supra). […]

VegF = target: T2, VegF (UniProt P15692); experiment: BioVeris electrochemiluminescence competition binding assay, VEGF; details: for competition with Anti-VegF antibody for binding to VegF (ECL signal): labeled Anti-VegF antibody, biotinylated VegF
T2 sequence (P15692 207-395): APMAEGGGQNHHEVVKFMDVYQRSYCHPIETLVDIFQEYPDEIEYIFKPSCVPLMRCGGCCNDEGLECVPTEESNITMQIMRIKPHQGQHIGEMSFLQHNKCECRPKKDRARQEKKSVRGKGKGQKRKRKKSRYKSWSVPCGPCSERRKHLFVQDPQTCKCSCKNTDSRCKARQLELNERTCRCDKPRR
Experimental: Briefly, after cleavage, the pH of the cleaved sample was adjusted to 5.5, the sample was then loaded onto the column (equilibrated with 25 mM MES pH 5.5). The free 2BBIck81 was washed through the column using 25 mM sodium acetate pH 5.0 while the BCE103 catalytic core remained bound to the resin. The 2BBIck81 fraction was concentrated by ultrafiltration and analyzed using an electrochemiluminescence (ECL) based binding assay (BioVeris). The Anti-VegF antibody (Santa Cruz) and VegF (PeproTech) were labeled with the electrochemiluminescent dye and biotin, respectively, as described by the manufacturer (BioVeris). All materials were in Dulbecco's PBS (Mediatech) supplemented with 0.1% TWEEN®-80. An initial dilution series of Anti-VegF antibody (125, 250 and 500 ng/ml) and VegF (100, 150, 200 and 250 ng/ml) were tested in the binding assay to determine the concentrations of each that would give a robust ECL signal.
For testing 2BBIck81 binding, 50 μL of 500 ng/ml ECL labeled Anti-VegF antibody, 50 μL of 250 ng/ml biotinylated VegF and 100 μL 2BBIck81 (series of 12.5, 15, 31.25, 62.5, 125, 250 or 500 ng/ml) were incubated at room temperature for 2 h with shaking. Then, 50 μL of 0.2 mg/ml streptavidin coated beads were added and the reaction was incubated at room temperature for 30 minutes. The ECL signal was measured using a BioVeris M8/384 Analyzer as described by the manufacturer (BioVeris).
(§2) The resulting vectors were used to transform B. subtilis BG6006 host cells. Cultures were grown in 500 ml of MBD medium and the BBI species were purified essentially as described above and by Vogtentanz et al., 2007 (Protein Expr Purif 55:40-52 [2007]). BioVeris binding assays were performed essentially as outlined in Example 5 and by the manufacturer. Binding of the modified variant BBIs to their respective target proteins was measured using a BioVeris® binding assay, which is a competition assay that determines the binding of the modified variant BBIs to its target protein (e.g. VEGF, FGF5, TGFβ and TNFα) in the presence or absence of a labeled competitor. The competitor can be a labeled monoclonal antibody raised against the target protein or a labeled native receptor of the target protein. The electrochemiluminescent binding assays were performed essentially as described in Example 5. The apparent IC50s were determined from binding data by determining the concentration of the BBI species needed to reduce the BioVeris signal by one half. BBI scaffolds without the target binding peptide in the chymotrypsin inhibitory loop were used as negative controls.

human CD4+ T cells = experiment: i-mune assay for peptide T-cell epitopes; assay type: cell-based
Experimental: The i-mune® assay was performed for the identification of peptide T-cell epitopes in wild type BBI using naïve human T-cells, as described in WO9953038A2 and Stickler et al, 2000 (J. Immunotherapy, 23(6), 654-660, [2000]). Peptides for use in the assay were prepared based on the wild-type BBI amino acid sequence […] CYEPCKPSEDDKEN (SEQ ID NO:13). From the full length amino acid sequence of BBI, 15mer peptides were synthetically prepared by Mimotopes US West (San Diego, Calif.). Each 15mer peptide sequence was designed to overlap with the previous and subsequent 15mer, except for three residues. The 20 peptides used to screen for T-cell epitopes, corresponding to wild type BBI sequence, were:
Briefly, human CD4+ T cells were co-cultured with dendritic cells and peptide for the intact peptide set, using the peptides shown in Figure Y. Cytokine responses were averaged within each experiment as described in Strickler et al, 2000 and a response to a peptide was tabulated as positive if the stimulation index (SI) was greater than 2.95 (FIG. 18A). SI values for each donor were compiled for each peptide set and the percent of donors responsive to each peptide is shown in FIG. 18B. The percent background response, 2.89%, was determined as the average percent responders over all the peptides in the set. The standard deviation for this dataset was 2.21%. Major epitopes are defined as having a percentage response that is 3-fold or more than the background.

TGFβ = TGFβ (Homo sapiens, UniProt P01137); experiment: BioVeris competition binding assay, TGFβ; details: Target protein TGFβ1, concentration reducing BioVeris signal by one half, read-out: BioVeris Binding (apparent IC50)
Chain of TGFβ (P01137 279-390): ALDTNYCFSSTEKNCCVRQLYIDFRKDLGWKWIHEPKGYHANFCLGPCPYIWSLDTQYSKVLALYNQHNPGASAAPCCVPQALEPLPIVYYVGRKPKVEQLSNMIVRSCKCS
Experimental: as §2

[2] = target: T3, bovine pancreatic chymotrypsin (Bos taurus, UniProt P00766); experiment: Chymotrypsin inhibition assay (BBI activity); assay type: biochemical; details: BCE103 fusion protein in cell free broth
T3 construct: purchased Worthington
Experimental: as §1, with “water.” for “water. Unknown BBI samples to be tested in the inhibitory assay were diluted as necessary, so that two or more data points would fall within the standard curve (usually 1:10, 1:100, 1:200, 1:1000, 1:2000 sample dilutions were tested and then the dilutions fine tuned if necessary).”

[3] = target: T1, bovine pancreatic trypsin; experiment: Shake flask screen: trypsin inhibition after growth, 2-mercaptoethanol activation and acid/heat treatment; assay type: biochemical; details: when not activated

B1: BBI-AV: BBI with VEGF binding peptide CK37281 replacing the chymotrypsin inhibitory loop, SEQ ID NO:186 (protein)
chain: DDESSKPCCDQCACTKSNPPQCRCSDMRLNSCHSACKSCACYNLYGWTCFCVDITDFCYEPCKPSEDDKEN
modifications: synthetic BBI-AV sequence
activity of the BBI (trypsin inhibition) relative to fusions to the wild-type BBI ([1]; BCE103 fusion protein in cell free broth): about two fold less | competition for VegF binding compared with synthesized CK37281 peptide (VegF): better than the synthesized CK37281 peptide itself | competition with Anti-VegF antibody for binding to VegF (ECL signal) (VegF): shown to compete | competition with Anti-VegF antibody for binding to VegF (ECL signal) (VegF; listed as 2BBIck81): competed with the Anti-VegF antibody for binding to VegF at micromolar concentrations

B2: BBI: soybean Bowman-Birk protease inhibitor from Glycine max, major mature form, SEQ ID NO:13 (protein)
chain: B1 chain with A40I, Y42A, N43L, L44S, G46P, W47A, T48Q
modifications: Glycine max
immunogenicity potential in humans (human CD4+ T cells): low immunogenicity potential | percent background response (average percent responders over all the peptides) (human CD4+ T cells; 20 overlapping 15mer peptides, 71 donors): 2.89% | peptide T-cell epitope responses (human CD4+ T cells; stimulation index > 2.95 positive, major epitope 3-fold or more over background): none of the peptide responses were significant | activated trypsin inhibitory activity, % of expected based on BCE103 cellulase concentration ([1]; 2 mM BME and 0.2 mM GSSG, about 24 h, room temperature): 70-100% | activity of the BBI after growth versus expected from BCE103 cellulase activity ([1]; cell free supernatants, trypsin or chymotrypsin inhibition, before activation): 5-20 times lower

B3: PEN3-Q-BBIt-TGF-A40L-F50N (SEQ ID NO: 677) (protein)
chain: PSESSKPCCDQCACTKSIPPQCRCTDVRLNSCHSACSSCACYNLYGWTCVCVDMKDFCYEPCK
modifications: synthetic BBdb-AV sequence
IC50 (TGFβ): 10 to 50 µM

B4: 1 BBIck81: BBI with the CK37281 peptide in the trypsin loop (protein)
chain: DDESSKPCCDQCACYNLYGWTCRCSDMRLNSCHSACKSCICALSYPAQCFCVDITDFCYEPCKPSEDDKEN
activity of the BBI (chymotrypsin inhibition) relative to fusions to the wild-type BBI [2]: about two fold less | competition with Anti-VegF antibody for binding to VegF (ECL signal) (VegF): also competed with the Anti-VegF antibody

B5: D1C: BBIt-AV (SEQ ID NO:187) with single substitution D1C (protein)
chain: CDESSKPCCDQCACTKSNPPQCRCSDMRLNSCHSACKSCACYNLYGWTCFCVDITDFCYEPCKPSE
modifications: synthetic BBIt-AV sequence
BBIt-AV yield after acid/heat treatment relative to unmodified BBIt-AV [3]: improved yields after acid/heat treatment
